Our source for the IC50, binding result and Kd values is article PMC8671107 (Frontiers in Molecular Biosciences, 2021).

One may read the IC50 as the concentration that gives 50% inhibition. A lower IC50 goes with inhibition by little substance. For orientation: Kd means the equilibrium constant for the complex coming apart.

In assay [1] the target is muscle-type nicotinic acetylcholine receptor from Torpedo californica electric organ (Torpedo californica (endogenous in electric organ)). The experiment in a line: radioligand binding.
For assay [2], the target named is neuronal human α7 nicotinic acetylcholine receptor expressed in GH4C1 cells (human) (UniProt P36544). Put plainly: radioligand binding.
In assay [3] the target is T1, acetylcholine binding protein from Lymnaea stagnalis (Lymnaea stagnalis, UniProt P58154 20-229).
T1 construct: also called AChBP; L. stagnalis AChBP
Put plainly: radioligand binding. The following applies: both partners purified.

Assay [4] concerns the target T1, acetylcholine binding protein from …. The experiment in a line: radioligand binding. The following applies: both partners purified. The source holds these as a separate data set.
The target is the same in assay [5]. The experiment in a line: MST. The following applies: both partners purified.
Assay [6] has the same target. Put plainly: other fluorescence titration. The following applies: both partners purified.

No end group written: not given here.

Sequence of muscle-type nicotinic acetylcholine receptor from Torpedo californica electric organ (Torpedo californica (endogenous in electric organ)) (P02710 25-461 limits assumed, chain 1 of 4): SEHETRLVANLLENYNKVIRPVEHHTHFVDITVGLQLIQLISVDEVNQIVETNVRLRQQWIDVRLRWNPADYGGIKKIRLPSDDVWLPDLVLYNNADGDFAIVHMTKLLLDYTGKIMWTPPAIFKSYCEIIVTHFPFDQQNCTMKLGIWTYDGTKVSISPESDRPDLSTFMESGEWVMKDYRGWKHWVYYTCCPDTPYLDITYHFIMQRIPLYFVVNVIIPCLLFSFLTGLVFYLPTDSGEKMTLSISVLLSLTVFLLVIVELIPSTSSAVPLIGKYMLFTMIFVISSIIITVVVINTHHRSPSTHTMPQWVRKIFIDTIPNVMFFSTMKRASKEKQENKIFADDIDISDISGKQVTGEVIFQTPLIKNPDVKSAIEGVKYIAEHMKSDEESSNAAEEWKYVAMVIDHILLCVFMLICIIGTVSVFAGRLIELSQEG
Sequence of muscle-type nicotinic acetylcholine receptor from Torpedo californica electric organ (Torpedo californica (endogenous in electric organ)) (P02712 25-493 limits assumed, chain 2 of 4, further chain): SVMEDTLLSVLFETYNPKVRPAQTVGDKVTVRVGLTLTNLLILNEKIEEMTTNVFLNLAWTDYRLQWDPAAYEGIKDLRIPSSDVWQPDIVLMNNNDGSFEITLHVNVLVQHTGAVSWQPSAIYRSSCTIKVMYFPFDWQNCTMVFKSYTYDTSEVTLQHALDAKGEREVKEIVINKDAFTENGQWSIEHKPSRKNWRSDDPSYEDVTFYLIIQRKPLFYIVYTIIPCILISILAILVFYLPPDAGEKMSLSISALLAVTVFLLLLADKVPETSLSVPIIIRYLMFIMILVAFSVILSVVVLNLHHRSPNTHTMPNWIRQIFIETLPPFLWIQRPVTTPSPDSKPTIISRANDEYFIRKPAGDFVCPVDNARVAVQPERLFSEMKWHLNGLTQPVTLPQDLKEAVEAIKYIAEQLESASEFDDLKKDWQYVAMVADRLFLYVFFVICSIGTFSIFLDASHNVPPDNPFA
Sequence of muscle-type nicotinic acetylcholine receptor from Torpedo californica electric organ (Torpedo californica (endogenous in electric organ)) (P02714 18-506 limits assumed, chain 3 of 4, further chain): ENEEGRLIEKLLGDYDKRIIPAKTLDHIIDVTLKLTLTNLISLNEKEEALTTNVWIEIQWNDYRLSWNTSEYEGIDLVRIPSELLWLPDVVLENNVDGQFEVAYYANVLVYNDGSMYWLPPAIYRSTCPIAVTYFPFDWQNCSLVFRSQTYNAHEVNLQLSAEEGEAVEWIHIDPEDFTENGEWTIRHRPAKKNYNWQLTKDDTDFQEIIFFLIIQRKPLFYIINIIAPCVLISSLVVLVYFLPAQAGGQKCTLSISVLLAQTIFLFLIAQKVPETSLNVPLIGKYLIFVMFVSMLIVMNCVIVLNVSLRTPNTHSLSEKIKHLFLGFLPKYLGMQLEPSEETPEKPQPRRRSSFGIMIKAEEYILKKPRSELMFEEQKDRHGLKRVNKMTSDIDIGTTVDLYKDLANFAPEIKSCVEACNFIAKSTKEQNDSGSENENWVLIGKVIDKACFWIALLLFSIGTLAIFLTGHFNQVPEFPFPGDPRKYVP
Sequence of muscle-type nicotinic acetylcholine receptor from Torpedo californica electric organ (Torpedo californica (endogenous in electric organ)) (P02718 22-522 limits assumed, chain 4 of 4, further chain): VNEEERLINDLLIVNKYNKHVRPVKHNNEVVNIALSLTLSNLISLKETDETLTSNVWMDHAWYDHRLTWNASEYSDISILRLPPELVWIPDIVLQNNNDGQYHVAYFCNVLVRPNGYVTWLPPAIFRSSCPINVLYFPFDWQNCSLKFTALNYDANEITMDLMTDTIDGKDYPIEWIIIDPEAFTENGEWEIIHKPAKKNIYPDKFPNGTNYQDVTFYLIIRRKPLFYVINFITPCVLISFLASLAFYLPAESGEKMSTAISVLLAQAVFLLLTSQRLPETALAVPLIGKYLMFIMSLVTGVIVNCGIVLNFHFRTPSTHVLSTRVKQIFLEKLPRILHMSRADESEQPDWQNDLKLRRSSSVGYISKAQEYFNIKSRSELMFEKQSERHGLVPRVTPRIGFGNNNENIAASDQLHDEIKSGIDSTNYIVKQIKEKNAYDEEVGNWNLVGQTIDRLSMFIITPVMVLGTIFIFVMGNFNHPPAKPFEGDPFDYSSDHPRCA
T1 sequence (P58154 20-229): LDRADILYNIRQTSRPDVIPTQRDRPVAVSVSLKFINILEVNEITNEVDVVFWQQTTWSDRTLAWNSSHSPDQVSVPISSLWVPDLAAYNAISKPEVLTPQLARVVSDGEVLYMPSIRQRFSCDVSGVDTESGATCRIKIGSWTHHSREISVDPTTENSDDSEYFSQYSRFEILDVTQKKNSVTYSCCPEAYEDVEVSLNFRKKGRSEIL
Sequence of neuronal human α7 nicotinic acetylcholine receptor expressed in GH4C1 cells (human) (P36544 23-502): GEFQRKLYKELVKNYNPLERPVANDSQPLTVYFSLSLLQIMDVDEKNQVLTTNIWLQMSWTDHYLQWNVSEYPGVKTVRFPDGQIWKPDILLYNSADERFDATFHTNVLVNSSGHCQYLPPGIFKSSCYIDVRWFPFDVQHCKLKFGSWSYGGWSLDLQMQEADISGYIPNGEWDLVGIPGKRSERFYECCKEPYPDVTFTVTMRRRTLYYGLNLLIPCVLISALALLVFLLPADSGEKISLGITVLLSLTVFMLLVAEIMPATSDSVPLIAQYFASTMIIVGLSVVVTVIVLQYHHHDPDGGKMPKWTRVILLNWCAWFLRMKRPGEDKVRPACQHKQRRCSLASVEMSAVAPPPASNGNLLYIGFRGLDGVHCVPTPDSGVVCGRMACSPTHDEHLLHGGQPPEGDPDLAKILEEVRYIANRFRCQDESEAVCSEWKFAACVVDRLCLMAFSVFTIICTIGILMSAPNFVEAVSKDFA

On to “HOBDI-BF2–Aze (fraction 4, label at Lys6) (peptide)”, for which the IC50 in assay [1] came to 172 nM.

With “α-cobratoxin (from UniProt P01391 1-71) (natural protein)”, the values for the IC50 in assay [1] and in assay [2] were 0.57 nM and 5.4 nM, respectively.

Consider “HOBDI-BF2–α-CbTx (from UniProt P01391 1-71) (natural protein)”, for which the IC50 in assay [1] stood at 3.88 nM; in assay [2], 27 nM.

B1: ^125I-α-bungarotoxin (natural protein)
chain: IVCHTTATSPISAVTCPPGENLCYRKMWCDAFCSSRGKVVELGCAATCPSKKPYEEVTCCSTDKCNPHPKQRPG
On to B1, for which, in assay [3], the binding result is listed as “binds”.

DNWWPKPPHQGPRPPRPRPKP-NH2 [azemiopsin] returned an IC50 in assay [1] of 7.3 nM. This lies in the single-digit nanomolar range.

In the case of DNWWPKPPHQGPRPPRPRPKP-NH2 (also: one p-HOBDI-BF2 label, position not given here) [Fraction 5 of p-HOBDI-BF2-modified azemiopsin (mono-modified product)], the IC50 in assay [1] was 128 nM.

In assay [1], DNWWPKPPHQGPRPPRPRPKP-NH2 (also: one p-HOBDI-BF2 label, position not given here) showed an IC50 of 210 nM. This IC50 is about 1.6-fold higher than that of the molecule before.

B2: α-cobratoxin (natural protein)
chain: IRCFITPDITSKDCPNGHVCYTKTWCDAFCSIRGKRVDLGCAATCPTVKTGVDIQCCSTDNCNPFPTRKRP
As to B2, the IC50 in assay [4] stood at 28 nM.

B3: HOBDI-BF2–α-CbTx (natural protein)
chain: IRCFITPDITSKDCPNGHVCYTKTWCDAFCSIRGKRVDLGCAATCPTVKTGVDIQCCSTDNCNPFPTRKRP
Consider B3, for which the Kd in assay [5] was 194 ± 89 nM; in assay [6], around 200 nM. This molecule also displayed an IC50 in assay [4] of 67 nM.
